To fix the notation:
B1: VH:VL chains; a variant is named by its letters at X, in order (parent)
chain 1: QVQLVQSGAEVKKPGASVKVSCKASGYTFTDYXMHWVRQAPGQGLEWMGXVNPNXXXTTYNQKFEGRVTMTTDTSTSTAYMELRSLRSDDTAVYYCARXNXLDXWGQGTTVTVSS
chain 2: DIQMTQSPSSLSASVGDRVTITCSVSSSVSSIYLHWYQQKPGKAPKLLIYSTSNLASGVPSRFSGSGSGTDFTLTISSLQPEDFATYYCQVYSGYPLTFGGGTKVEIK

The series covers variants of B1. The experiment in a line: yeast display scFab, FACS + sequencing. Summed up:
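The non-specific binding call was based on sorted and sequenced yeast displaying a heavy-chain CDR mutant scFab library. Labelling used anti-Myc with biotinylated ovalbumin (260 μg/mL in PBSB, 3 h, room temperature) or soluble membrane proteins (130 μg/mL, 20 min on ice), and FACS collected the top 25% and bottom 10% of binders in two replicates. Positive meant present in ≥3 of 4 pooled positive samples and in no negatives, and negative meant the converse.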
Take ARRRGSGA: the non-specific binding call is on record as “binds”.

With ARRRGSAA, the non-specific binding call is on record as “binds”.

On to VRRGGAAS, for which the non-specific binding call was “binds”.

Consider VRRGSASD, for which the non-specific binding call is given as “binds”. Under YRRGGSLS stands “binds”. In the case of FRRGGASA, the non-specific binding call was “binds”. Under FRRGSSAA stands “binds”; under FRRGSSAV, “binds”. Regarding YRRRGAGV, the non-specific binding call was “binds”. Under YRRRGAGD stands “binds”; under YRRRGAGY, “binds”. The same measure for YRRRGAGF: “binds”; for YRRRGAGA: “binds”.

Take YRRRGDAA: the non-specific binding call is given as “binds”. The same measure for YRRRGDAD: “binds”.

With YRRRGSVS, the non-specific binding call is reported as “binds”. With YRRRGSVA, the non-specific binding call is “binds”. The same measure for YRRRGSVD: “binds”; for YRRRGSVV: “binds”; for YRRRGSVF: “binds”. For YRRRGFWY, the non-specific binding call is on record as “binds”.

For the variant ARRRGAWY, the non-specific binding call is recorded as “binds”. In the case of VRRKSSSV, the non-specific binding call is “binds”. In the case of YRRRGSWV, the non-specific binding call is “binds”.

On to YRRRGSWD, for which the non-specific binding call was “binds”. Under YRRRGSWA stands “binds”.

Take YRRRGSWS: the non-specific binding call is “binds”. Under VRRGGAWV stands “binds”. For YRRKGAGD, the non-specific binding call is “binds”. Under YRRRGDGV stands “binds”; under YRRRGDGY, “binds”; under YRRRGDGD, “binds”. The same measure for FRRRGAWY: “binds”; for FRRRGAWA: “binds”. Consider FRRGSALA, for which the non-specific binding call was “binds”. For ARRGSAVS, the non-specific binding call was “binds”. Under YRRRGALY stands “binds”; under YRRRGALS, “binds”; under YRRRGALF, “binds”.

In the case of YRRRGALA, the non-specific binding call is on record as “binds”. Under VRRRGSAF stands “binds”; under YRRGSYVY, “binds”; under FRRRDAAF, “binds”. Regarding YRRGTSVD, the non-specific binding call is reported as “binds”. Under YRRGGDGA stands “binds”; under YRRGSFAA, “binds”; under FRRKDDWA, “binds”. The same measure for YRRGSSGA: “binds”. For YRRGSSGF, the non-specific binding call is reported as “binds”.

YRRGSSGS: the non-specific binding call is reported as “binds”. With VRRRGAGV, the non-specific binding call was “binds”. For VRRRGAGD, the non-specific binding call is on record as “binds”. As to FRRGGAVD, the non-specific binding call is “binds”. The same measure for FRRGGAVV: “binds”; for VRRGSSAF: “binds”. The same measure for VRRGSSAD: “binds”. The same measure for VRRGSSAS: “binds”; for VRRGSSAV: “binds”; for VRRKDFLA: “binds”. As for YRRKGAAY, the non-specific binding call is listed as “binds”. Under VRRGSAGS stands “binds”; under VRRGSAGD, “binds”.

YRRRGSLV: the non-specific binding call is on record as “binds”.

In the case of YRRRGSLS, the non-specific binding call is “binds”.

For the variant YRRRGSLD, the non-specific binding call is “binds”. For the variant YRRRGSLY, the non-specific binding call is “binds”. YRRRGSLA: the non-specific binding call was “binds”. Regarding YRRRGSLF, the non-specific binding call is “binds”. Under YRRRGAAS stands “binds”; under YRRRGAAA, “binds”; under YRRRGAAF, “binds”. As for YRRRGAAD, the non-specific binding call is “binds”. In the case of YRRRGAAY, the non-specific binding call is listed as “binds”. Consider FRRRGDWY, for which the non-specific binding call is “binds”.

For the variant VRRGGSAA, the non-specific binding call is on record as “binds”. The same measure for SRRGGYVS: “binds”; for DRRKAFSA: “binds”; for YRRGSAVA: “binds”.

With YRRGSAVY, the non-specific binding call is given as “binds”.

YRRGSAVD: the non-specific binding call was “binds”. As to YRRRGVAA, the non-specific binding call is recorded as “binds”. Take YRRRGVAD: the non-specific binding call is on record as “binds”. The same measure for VRRGSSGD: “binds”; for YRRGSSVS: “binds”; for YRRGSSVF: “binds”. Regarding YRRGSSVV, the non-specific binding call is “binds”. The same measure for YRRRGDVY: “binds”. The same measure for YRRRGDVV: “binds”.

In the case of YRRRGDVD, the non-specific binding call was “binds”. The same measure for YRRGGSWD: “binds”. As to YRRGGSWV, the non-specific binding call is “binds”.

As to FRRRGSGD, the non-specific binding call is given as “binds”. YRRKGALV: the non-specific binding call is recorded as “binds”.

For FRRGSAVA, the non-specific binding call is recorded as “binds”. Under YRRKGSSS stands “binds”.

For the variant YRRKGSSA, the non-specific binding call was “binds”. As for VRRGGALD, the non-specific binding call is “binds”. Under YRRGSAWA stands “binds”; under SRRRGAWY, “binds”. Under VRRRGSGD stands “binds”; under VRRRGSLF, “binds”; under YRRGSALS, “binds”. Under YRRGSALY stands “binds”; under ARRRGAAA, “binds”; under YRRKGASV, “binds”. In the case of VRRGSDGV, the non-specific binding call is on record as “no binding”. The same measure for FRRRGSAD: “binds”. For FRRRGSAA, the non-specific binding call is given as “binds”.

YRRGSSLY: the non-specific binding call was “binds”. YRRGSSLF: the non-specific binding call is on record as “binds”.

YRRGSSLS: the non-specific binding call is recorded as “binds”.

Consider YRRGSSLV, for which the non-specific binding call is reported as “binds”. Under YRRGGVGV stands “binds”; under YRRGGVGA, “binds”. Under FRRGGSVD stands “binds”. In the case of VRRGSSVV, the non-specific binding call is “binds”.

Take VRRGSSVS: the non-specific binding call is listed as “binds”. Under YRRRGSGS stands “binds”; under YRRRGSGF, “binds”; under YRRRGSGV, “binds”. Under YRRRGSGY stands “binds”; under YRRRGSGA, “binds”; under YRRRGFGD, “binds”. Under YRRRGFGV stands “binds”. For the variant YRRRGFGS, the non-specific binding call is “binds”.

Take YRRRGFGA: the non-specific binding call is listed as “binds”. Consider YRRRGFGY, for which the non-specific binding call is “binds”. For the variant YRRGGAWY, the non-specific binding call was “binds”. The same measure for YRRGGAWS: “binds”; for YRRGGAWV: “binds”; for YRRGGAWA: “binds”. The same measure for YRRGGAWD: “binds”; for YRRGGFGV: “binds”; for YRRGGFGA: “binds”.

In the case of FRRRGSSD, the non-specific binding call is listed as “binds”. Turning to YRRRGVGA, the non-specific binding call is “binds”. The same measure for YRRGGSVA: “binds”. Under YRRGGSVS stands “binds”. The same measure for YRRGGSVF: “binds”; for YRRGGSVD: “binds”. Take FRRGSSVV: the non-specific binding call was “binds”. For VRRRGAVV, the non-specific binding call is listed as “binds”. YRRRGAVD: the non-specific binding call was “binds”.

In the case of YRRRGAVA, the non-specific binding call is given as “binds”. Regarding YRRRGAVF, the non-specific binding call is “binds”.

In the case of YRRRGAVY, the non-specific binding call is recorded as “binds”. Under YRRGSAGF stands “binds”; under YRRGSAGS, “binds”; under FRRGGAWD, “binds”. Under FRRGGAWV stands “binds”; under FRRGGAWY, “binds”. Under YRRRGFVD stands “binds”; under YRRRGFVV, “binds”; under YRRRGFVA, “binds”. Turning to SRRRGSAA, the non-specific binding call is recorded as “binds”.

As for VRRRGAAD, the non-specific binding call is on record as “binds”. The same measure for YRRGGYAV: “binds”; for YRRRGAWV: “binds”. Under YRRRGAWD stands “binds”; under YRRRGAWA, “binds”; under YRRRGAWS, “binds”. Under YRRRGAWF stands “binds”. Consider FRRGGSGS, for which the non-specific binding call was “binds”. With FRRGGSGV, the non-specific binding call was “binds”. The same measure for FRRRGAAD: “binds”; for FRRRGAAA: “binds”; for FRRGGAGD: “binds”. FRRGGAGY: the non-specific binding call is listed as “binds”. The same measure for YRRKGDAD: “binds”. Under FRRGGSAD stands “binds”. Consider FRRGGSAF, for which the non-specific binding call is on record as “binds”. In the case of FRRGGSAA, the non-specific binding call was “binds”.

FRRRGAVD: the non-specific binding call is listed as “binds”. As to FRRRGAVA, the non-specific binding call is listed as “binds”.

In the case of YRRGSASV, the non-specific binding call is reported as “binds”. The same measure for YRRGSASS: “binds”; for YRRGSASD: “binds”. On to YRRGSSSV, for which the non-specific binding call is listed as “binds”. On to YRRGSSSA, for which the non-specific binding call is listed as “binds”.

FRRGGAAA: the non-specific binding call is “binds”.

For the variant FRRGGAAS, the non-specific binding call is reported as “binds”. For YRRGGAGY, the non-specific binding call is “binds”. Regarding YRRGGAGF, the non-specific binding call is “binds”. The same measure for YRRGGAGV: “binds”; for YRRRGDLD: “binds”; for DRRRGSGA: “binds”.

For FRRGGALD, the non-specific binding call is reported as “binds”. The same measure for YRRRGFAA: “binds”; for YRRRGFAV: “binds”. Under ARRGGSVD stands “binds”; under FRRGGSLD, “binds”; under YRRGSSAV, “binds”.

Regarding YRRGSSAA, the non-specific binding call was “binds”. In the case of YRRKDALA, the non-specific binding call is reported as “binds”.

Turning to YRRRGDWA, the non-specific binding call is “binds”. Under YRRRGDWY stands “binds”. Turning to YRRRGDWD, the non-specific binding call was “binds”. For VRRGSFGA, the non-specific binding call is listed as “binds”. Under YRRGGAVS stands “binds”; under YRRGGAVA, “binds”. Under YRRKGSGA stands “binds”; under YRRKGSGY, “binds”. Under YRRRGSAS stands “binds”; under YRRRGSAD, “binds”. In the case of YRRRGSAF, the non-specific binding call is on record as “binds”.

As to FRRRGALD, the non-specific binding call is “binds”. Regarding ARRGSSLD, the non-specific binding call is “no binding”.

DRRRGALD: the non-specific binding call is given as “binds”. Under DRRGSDAV stands “no binding”; under YRRGGALD, “binds”. Under YRRGGALA stands “binds”. Consider YRRGGALV, for which the non-specific binding call was “binds”.

Regarding YRRRDSSA, the non-specific binding call was “binds”. For the variant YRRGGSAV, the non-specific binding call was “binds”.

Turning to YRRGGSAA, the non-specific binding call is reported as “binds”. The same measure for VRRGSSLF: “binds”; for YRRGSVGA: “binds”. Under YRRGSVGV stands “binds”; under YRRGGFVV, “binds”; under FRRGSSGD, “binds”.

Regarding FRRGSSGA, the non-specific binding call is reported as “binds”.

For the variant FRRGSSGS, the non-specific binding call was “binds”. Under YRRRGASA stands “binds”. Consider YRRRGASV, for which the non-specific binding call is reported as “binds”. Under YRRRGASS stands “binds”; under YRRRGASF, “binds”. For YRRRGASD, the non-specific binding call is “binds”.

For the variant ARRGGSGS, the non-specific binding call is listed as “binds”. Under ARRGGSGF stands “binds”; under FRRRGSLY, “binds”. The same measure for FRRRGSLV: “binds”; for SRRGSASS: “binds”; for YRRRGSSD: “binds”.

Regarding YRRRGSSA, the non-specific binding call is reported as “binds”. Regarding YRRRGSSS, the non-specific binding call is “binds”.

Regarding YRRRGSSF, the non-specific binding call is “binds”.

On to YRRGGYVD, for which the non-specific binding call is “binds”. ARRGSDVA: the non-specific binding call is recorded as “no binding”. On to YRRGGAAY, for which the non-specific binding call is “binds”. The same measure for YRRGGAAA: “binds”. Under YRRGGAAD stands “binds”; under YRRGGAAF, “binds”; under YRRGGAAV, “binds”.

On to YRRGGAAS, for which the non-specific binding call is “binds”. Consider YRRGGSSA, for which the non-specific binding call was “binds”. Consider VRRGGSGS, for which the non-specific binding call is recorded as “binds”. Under VRRGGSGD stands “binds”. The same measure for YRRKGSVD: “binds”; for VRRRGSWV: “binds”. In the case of VRRRGALA, the non-specific binding call was “binds”. The same measure for VRRRGALD: “binds”; for YRRGSFGA: “binds”; for ARRGSDLA: “no binding”. The same measure for YRRGGSGD: “binds”. Under YRRGGSGS stands “binds”; under YRRGGSGA, “binds”; under YRRGGSGY, “binds”. For YRRGGASA, the non-specific binding call is “binds”. The same measure for YRRGGASD: “binds”; for SRRRGALD: “binds”.

For the origin of these results see the emibetuzumab library of Makowski et al. (2022).
